Source: US20160031998A1 (CSL, published 2016)
Each block holds one binder with its values, some of them ahead of it.

What was measured:
[1] = molecular target: T1, hG-CSFR-Fc: polypeptide of SEQ ID NO: 1 in which the C-terminal polyhistidine tag is replaced with an Fc … (Homo sapiens, UniProt Q99062 25-335); assay: SPR (Biacore 2000), receptor immobilised on CM5 chip, IgG4 in solution
T1 construct: the Fc is not specified; also called human G-CSFR-Fc; hG-CSFR-Fc fusion
T1 chain: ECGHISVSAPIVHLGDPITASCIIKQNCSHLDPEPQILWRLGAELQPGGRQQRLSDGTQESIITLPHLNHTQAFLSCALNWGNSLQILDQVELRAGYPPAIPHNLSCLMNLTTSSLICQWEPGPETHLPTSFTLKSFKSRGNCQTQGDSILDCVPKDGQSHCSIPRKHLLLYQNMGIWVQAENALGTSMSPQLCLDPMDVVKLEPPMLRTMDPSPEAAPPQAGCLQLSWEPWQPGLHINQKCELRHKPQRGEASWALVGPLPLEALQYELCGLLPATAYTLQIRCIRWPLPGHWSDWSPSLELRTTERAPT
Method: (§1) Duplicate biosensor analysis of the antibodies c1.2 and 5D11 in IgG4 format were performed using a Biacore 2000 with a doubling dilution of the antibodies (312 nM to 2.4 nM in 0.1 mg/ml BSA) at a flow rate of 30 ul/min. Binding (100 μl) was monitored to respective flow cells containing control immobilized blank, immobilized cyno-G-CSFR-Fc, immobilized hG-CSFR-Fc and immobilized hG-CSFR. Receptor proteins (20 ug per ml in 20 mM Sodium Acetate pH 4.5) were previously immobilized to a CM5 chip using a NHS/EDC coupling kit as per the manufacturer's instructions (Biacore GE, Sweden). Target immobilization values were set at 700, 700 and 500 resonance units for cyno-G-CSFR-Fc, hG-CSFR-Fc and hG-CSFR, respectively. Chip immobilization was quenched with 50 mM ethanolamine pH 8.0. Dissociation of surface binding was monitored for 1000 seconds prior to desorption of the remaining complex using 50 mM Phosphoric acid. Reference binding was then subtracted from the control channel and kinetics generated using biaevaluation software on the Biacore 2000.

[2] = molecular target: T2, soluble hG-CSFR: amino acids 25-335 of Homo sapiens G-CSFR with mutations C78A, C163S and C228S and a … (Homo sapiens, UniProt Q99062 25-335); assay: as above
T2 chain: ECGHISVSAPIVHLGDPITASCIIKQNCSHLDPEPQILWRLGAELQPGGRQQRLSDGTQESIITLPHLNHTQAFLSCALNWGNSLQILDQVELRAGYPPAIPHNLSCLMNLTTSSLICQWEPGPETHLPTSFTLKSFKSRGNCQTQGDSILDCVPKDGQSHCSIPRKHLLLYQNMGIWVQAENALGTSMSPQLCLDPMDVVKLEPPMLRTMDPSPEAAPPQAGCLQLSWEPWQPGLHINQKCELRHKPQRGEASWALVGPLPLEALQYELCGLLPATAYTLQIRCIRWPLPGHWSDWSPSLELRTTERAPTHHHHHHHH
Method: as §1

[3] = molecular target: T3, cynoG-CSFR-Fc: corresponding segment of cynomolgus monkey G-CSFR with an Fc sequence attached to its … (Macaca fascicularis, UniProt Q99062 25-335 (human entry)); assay: as above
T3 construct: the Fc is not specified; also called cynomolgus monkey G-CSFR-Fc
T3 chain: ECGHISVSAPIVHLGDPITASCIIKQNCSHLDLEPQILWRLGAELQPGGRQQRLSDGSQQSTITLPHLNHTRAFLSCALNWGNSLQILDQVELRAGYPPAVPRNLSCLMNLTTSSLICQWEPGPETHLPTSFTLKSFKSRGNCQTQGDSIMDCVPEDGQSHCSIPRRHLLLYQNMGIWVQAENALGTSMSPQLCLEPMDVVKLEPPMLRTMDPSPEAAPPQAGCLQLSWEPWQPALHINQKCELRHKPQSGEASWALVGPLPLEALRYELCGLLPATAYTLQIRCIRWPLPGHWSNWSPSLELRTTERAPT
Method: as §1

[4] = molecular target: T4, human G-CSFR expressed on cells (Homo sapiens, UniProt Q99062 25-836); assay: cell-based or functional assay
T4 sequence: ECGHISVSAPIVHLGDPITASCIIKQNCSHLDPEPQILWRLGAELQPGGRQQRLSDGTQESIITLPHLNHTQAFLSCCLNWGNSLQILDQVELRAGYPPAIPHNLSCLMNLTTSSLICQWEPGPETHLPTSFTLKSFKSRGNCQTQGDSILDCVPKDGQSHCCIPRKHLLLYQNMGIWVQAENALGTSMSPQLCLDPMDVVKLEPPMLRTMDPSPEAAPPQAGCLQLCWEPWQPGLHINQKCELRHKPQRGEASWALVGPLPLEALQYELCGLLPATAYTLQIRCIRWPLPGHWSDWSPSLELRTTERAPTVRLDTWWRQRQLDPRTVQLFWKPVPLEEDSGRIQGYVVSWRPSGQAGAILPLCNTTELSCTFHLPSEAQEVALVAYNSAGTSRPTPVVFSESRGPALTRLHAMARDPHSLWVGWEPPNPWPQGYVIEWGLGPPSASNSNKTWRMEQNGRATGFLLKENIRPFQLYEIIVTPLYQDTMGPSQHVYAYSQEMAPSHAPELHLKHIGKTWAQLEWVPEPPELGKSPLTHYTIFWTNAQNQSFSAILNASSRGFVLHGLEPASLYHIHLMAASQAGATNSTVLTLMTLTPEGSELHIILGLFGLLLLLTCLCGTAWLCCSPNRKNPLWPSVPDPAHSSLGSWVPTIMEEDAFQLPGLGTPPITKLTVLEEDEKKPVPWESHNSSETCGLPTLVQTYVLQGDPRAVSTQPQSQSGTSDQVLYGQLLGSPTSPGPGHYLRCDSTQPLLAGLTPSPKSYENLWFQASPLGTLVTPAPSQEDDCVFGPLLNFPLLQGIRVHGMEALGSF

[5] = molecular target: T1, hG-CSFR-Fc: polypeptide of SEQ ID NO: 1 …; assay: SPR (Biacore 2000), receptor immobilised on CM5 chip, Fab in solution
Method: (§2) Duplicate biosensor analysis of the Fab were performed using a Biacore 2000 (GE, Sweden) with a doubling dilution of Fab antibodies (100 nM to 0.39 nM in 0.1 mg/ml BSA) at a flow rate of 30 μl/min. Binding (100 μl) was monitored to respective flow cells containing control immobilised blank, immobilized cyno G-CSFR-Fc, immobilized human G-CSFR-Fc and immobilized human G-CSFR. Receptor proteins (20 μg per ml in 20 mM Sodium Acetate pH 4.5) were previously immobilized to a CM5 chip using a NHS/EDC coupling kit as per the manufacturer's instructions (Biacore GE, Sweden). Target immobilization values were set at 700, 700 and 500 resonance units for cyno G-CSFR-Fc, hG-CSFR-Fc and hG-CSFR, respectively. Chip immobilisation was quenched with 50 mM ethanolamine pH 8.0. Dissociation of surface binding was monitored for 1000 seconds prior to desorption of the remaining complex using 50 mM Phosphoric acid. Reference binding was then subtracted from the control channel and kinetics generated using biaevaluation software on the Biacore 2000.

[6] = molecular target: T2, soluble hG-CSFR: amino acids 25-335 of …; assay: as above
Method: as §2

[7] = molecular target: T3, cynoG-CSFR-Fc: corresponding segment of …; assay: as above
Method: as §2

[8] = molecular target: T4, human G-CSFR expressed on cells; assay: binding to BaF3 cells expressing hG-CSFR; method not described; hG-CSFR on the cell surface of BaF3 cells
[9] = molecular target: T4, human G-CSFR expressed on cells; assay: cell-based or functional assay; remark: listed apart in the source
[10] = molecular target: T5, wild type hG-CSFR (soluble, corresponding extracellular domains of the wild type receptor) (Homo sapiens, UniProt Q99062 25-335); assay: SPR (Biacore), mAb captured by anti-Fc, soluble wild type receptor injected
T5 construct: also called wt hG-CSFR
T5 sequence: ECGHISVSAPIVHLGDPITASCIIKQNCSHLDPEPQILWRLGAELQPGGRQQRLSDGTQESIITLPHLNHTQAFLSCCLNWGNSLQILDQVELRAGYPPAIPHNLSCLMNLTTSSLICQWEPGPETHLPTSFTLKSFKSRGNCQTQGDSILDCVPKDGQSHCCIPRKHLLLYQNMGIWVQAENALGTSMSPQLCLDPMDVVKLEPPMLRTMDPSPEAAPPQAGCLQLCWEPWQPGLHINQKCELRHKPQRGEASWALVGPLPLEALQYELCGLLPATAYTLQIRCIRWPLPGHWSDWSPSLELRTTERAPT

Kd [1]: 0.077 nM
Kd [2]: 0.027 nM
Kd [3]: 0.054 nM
IC50, inhibition of CFU-G formation by CD34+ bone marrow cells in the presence of G-CSF [4]: 0.016 nM
IC50, inhibition of G-CSF-mediated proliferation of BaF3 cells expressing hG-CSFR [4]: 0.5 nM
B1: C1.2 IgG4 antibody (antibody, V domains shown)
VH: EVQLLESGGGLVQPGGSLRLSCAASGFTFSLYWMGWVRQAPGKGLEWVSSISSSGGVTPYADSVKGRFTISRDNSKNTLYLQMNSLRAEDTAVYYCAMLGELGWFDPWGQGTLVTVSS
VL: DIQMTQSPSALSASVGDRVTITCRASQGISSYLNWYQQKPGKAPKLLIYYASNLQNGIPSRFSGSGSGTDFTLTISSLQPEDFATYHCQQSYSTPLTFGGGTNVEIR
notes: human IgG4 format; also called C1.2 Ab

Kd [5]: 0.33 nM
Kd [6]: 0.37 nM
Kd [7]: 0.39 nM
B2: C1.2 Fab (Fab, V domains shown)
VH: EVQLLESGGGLVQPGGSLRLSCAASGFTFSLYWMGWVRQAPGKGLEWVSSISSSGGVTPYADSVKGRFTISRDNSKNTLYLQMNSLRAEDTAVYYCAMLGELGWFDPWGQGTLVTVSS
VL: DIQMTQSPSALSASVGDRVTITCRASQGISSYLNWYQQKPGKAPKLLIYYASNLQNGIPSRFSGSGSGTDFTLTISSLQPEDFATYHCQQSYSTPLTFGGGTNVEIR
notes: human Fab (papain digest of the antibody or E. coli expression); also called Fab C1.2

IC50, inhibition of G-CSF-mediated proliferation of BaF3 cells expressing hG-CSFR (3H-thymidine incorporation) [4]: 0.8 µg/mL
Kd [8]: 0.257 nM
IC50 (nM), inhibition of G-CSF-mediated proliferation of BaF3 cells [9]: 0.32 nM
Kd [10]: 1.4 nM
B3: C1.2G (germlined C1.2), human IgG4 (antibody, V domains shown)
VH: EVQLLESGGGLVQPGGSLRLSCAASGFTFSLYWMGWVRQAPGKGLEWVSSISSSGGVTPYADSVKGRFTISRDNSKNTLYLQMNSLRAEDTAVYYCAKLGELGWFDPWGQGTLVTVSS
VL: DIQMTQSPSSLSASVGDRVTITCRASQGISSYLNWYQQKPGKAPKLLIYYASNLQNGVPSRFSGSGSGTDFTLTISSLQPEDFATYYCQQSYSTPLTFGGGTKVEIK
notes: Human IgG4/kappa; also called C1.2 germline mAb; C1.2G (human IgG4)
